Sequences and labels used below:
B1: humanized scFv 16-02-B03-sc02 (scFv)
scFv: MDIQMTQSPSSLSASVGDRVTITCQSSQSVYSSNLAWYQQKPGKAPKLLIYSASKLASGVPSRFSGSGSGTDFTLTISSLQPEDEATYYCQGTYYTSNWLNAFGGGTKLTVLGGGGGSGGGGSGGGGSGGGGSEVQLVESGGGLVQPGGSLRLSCAASGIDLSSYAMGWVRQAPGKGLEWIGTISVGGSTYYANWAEGRFTISRDNSKNTVYLQMNSLRAEDTAVYYCAGGDYINFFYFNIWGQGTLVTVSS
notes: CDR graft on a Vκ1/VH3 scaffold; also called 16-02-B03-sc02 (CDR); 16-02-B03-sc02-scFv
B2: recombinant human TNFβ (ligand, UniProt P01374 35-205, looked up)
chain: LPGVGLTPSAAQTARQHPKMHLAHSTLKPAAHLIGDPSKQNSLLWRANTDRAFLQDGFSLSNNSLLVPTSGIYFVYSQVVFSGKAYSPKATSSPLYLAHEVQLFSSQYPFHVPLLSSQKMVYPGLQEPWLHSMYHGAAFQLTQGDQLSTHTDGIPHLVLSPSTVFFGAFAL

The target in assay [1] is T1, recombinant human TNFα (human, UniProt P01375 77-233).
T1 construct: also called TNFα trimer; biotinylated TNFα
T1 sequence (P01375 77-233 limits assumed): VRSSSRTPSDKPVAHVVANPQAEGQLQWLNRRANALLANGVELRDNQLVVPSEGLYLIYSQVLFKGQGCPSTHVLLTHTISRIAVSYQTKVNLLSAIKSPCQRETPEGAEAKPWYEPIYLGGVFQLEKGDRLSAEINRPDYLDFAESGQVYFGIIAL
Briefly: SPR (MASS-1); TNFα amine-coupled on chip, scFv injected 45-1.4 nM. The method, then:
(§1) In a second step, Single Injection Cycle Kinetics (SiCK) were measured from a single injection cycle by simultaneously injecting six analyte samples at different concentrations into each of the eight parallel channels in the MASS-1 system. […] The apparent dissociation (kd) and association (kₐ) rate constants and the apparent dissociation equilibrium constant (KD) were calculated with the MASS-1 analysis software (Analyzer, Sierra Sensors) using one-to-one Langmuir binding model and quality of the fits was monitored based on Chi², which is a measure for the quality of the curve fitting. The smaller the value for the Chi² the more accurate is the fitting to the one-to-one Langmuir binding model. For affinity screenings, results were deemed valid if the Chi² was below 10 for the concentration analyzed. In cases where several scFv concentrations were analyzed, results were deemed valid if the average Chi² over all the concentrations tested was below 10.

Assay [2] deals with T2, recombinant Cynomolgus monkey TNFα (Cynomolgus monkey (Macaca fascicularis), UniProt P79337 77-233).
T2 construct: also called Cynomolgus TNFα; Cyno TNFα
T2 sequence (P79337 77-233 limits assumed): as the sequence (P01375 77-233 limits assumed) above, with L37V, R44T, T72N, R138L counted along it
The description is as above. The method, then:
as §1

Assay [3] has as its target T3, Rhesus monkey TNFα (Rhesus monkey (Macaca mulatta), UniProt P48094 77-233).
T3 construct: also called Rhesus TNFα; Macaca mulatta TNFα
Described as above. How it is done:
as §1

Assay [4] has as its target T1, recombinant human TNFα. In words: inhibition ELISA; biotinylated TNFα 960 pM pre-incubated with scFv; competitor TNFRI-Fc coated. For orientation: An ELISA detects its analyte on a solid surface through an enzyme-linked reagent.
The target in the assay “recombinant human TNFβ” is B2. Briefly: competition ELISA: scFv coated, biotinylated TNFα, unlabeled TNFβ as competitor. How it is done:
To control precision of the response, the dose-response curves was analyzed in duplicate.

The target of assay [5] is T1, recombinant human TNFα. In words: cell-based or functional assay.
Assay [6] addresses T2, recombinant Cynomolgus monkey TNFα. Briefly: cell-based or functional assay.
Assay [7] has as its target T3, Rhesus monkey TNFα. Briefly: cell-based or functional assay.
Assay [8] has as its target T1, recombinant human TNFα. Briefly: inhibition ELISA; biotinylated TNFα 960 pM pre-incubated with scFv; competitor TNFRII-Fc coated. How it is done: For the second inhibition ELISA, the extracellular domain of TNFRII fused to the Fc region of human IgG (R&D Systems, Cat. No. 726-R2) was coated at a concentration of 2 μg/mL. All subsequent steps were identical for both assays.

For assay [9], the target named is B1. Briefly: competition ELISA: scFv coated, biotinylated TNFα, unlabeled TNFβ or TNFα as competitor. An excerpt: (§2) The quality of recombinant human TNFβ has been analyzed 1) for purity by SDS-page and HPLC analysis, and 2) for biological activity in the mouse L929 cytotoxicity assay, by the manufacturer of the protein.
In assay [10] the target is B1. In words: competition ELISA: scFv coated, biotinylated TNFα 75 ng/mL, unlabeled TNFβ as competitor.
Excerpt: as §2

Some results are limits rather than exact numbers.

T3 sequence (P48094 77-233 limits assumed): as the sequence (P01375 77-233 limits assumed) above, with R44T, T72N, R138L counted along it

Consider B1, for which, in the assay with recombinant human TNFα [1], the Kd (commonly the constant that tells how readily two partners part at equilibrium) came to 0.16 nM; the koff (usually the rate constant with which the complex falls apart) worked out at 6.6e-05 s⁻¹; the kon – broadly, the rate constant with which the complex forms – was determined as 410000 M⁻¹ s⁻¹. Moreover, in [2], the equilibrium dissociation constant (Kd) turned out to be 1.1 nM, the koff was 0.00021 s⁻¹ and the kon worked out at 180000 M⁻¹ s⁻¹. In the assay with Rhesus monkey TNFα [3], this molecule registered a dissociation constant Kd of 1.6 nM, a dissociation rate constant (koff) of 0.00022 s⁻¹ and a kon of 130000 M⁻¹ s⁻¹. Further, in the assay with recombinant human TNFα [4], the IC50 (usually the concentration that inhibits the measured activity by half) worked out at 0.0737 µg/mL. Also, the binding result with recombinant human TNFβ is given as “no binding (tested: 1250 µg/mL)”. In addition, in the assay with recombinant human TNFα [5], the “Potency (L929 assay), rel. IC50 (IC50,Infliximab/IC50,scFv, ng/mL)” value was 1.7 and the “Species-specificity IC50 [ng/mL], human (L929 assay)” value amounted to 6.9 ng/mL. The “Species-specificity IC50 [ng/mL], cyno (L929 assay)” value in assay [6] turned out to be 99.3 ng/mL. The “Species-specificity IC50 [ng/mL], rhesus (L929 assay)” value with Rhesus monkey TNFα [7] was determined as 71.8 ng/mL. Besides, the IC50 with recombinant human TNFα [8] came out at 0.0795 µg/mL.
Take B2: the “Target selectivity, rel. IC50 of TNFβ vs TNFα” value in assay [9] was > 10000 fold. Further, the half-inhibitory concentration (IC50) in assay [10] was > 1250 µg/mL.
